We go through one molecule from US20090092544A1.

Experiment [1] concerns the target ROBO1 expressed on ROBO1-expressing HEK293 cells (ROBO1/pcDNA3.1, C-terminal V5 tag) (human) (UniProt Q9Y6N7). Description: FACS on ROBO1-expressing HEK293 cells, signal intensity digitized.
Experiment [2] has the same target. The experiment in a line: cell-based or functional assay.

The EC50 is the concentration giving half of the maximal effect. A low value points to an effect from little substance.

Chain of UniProt Q9Y6N7 (Q9Y6N7 26-1651): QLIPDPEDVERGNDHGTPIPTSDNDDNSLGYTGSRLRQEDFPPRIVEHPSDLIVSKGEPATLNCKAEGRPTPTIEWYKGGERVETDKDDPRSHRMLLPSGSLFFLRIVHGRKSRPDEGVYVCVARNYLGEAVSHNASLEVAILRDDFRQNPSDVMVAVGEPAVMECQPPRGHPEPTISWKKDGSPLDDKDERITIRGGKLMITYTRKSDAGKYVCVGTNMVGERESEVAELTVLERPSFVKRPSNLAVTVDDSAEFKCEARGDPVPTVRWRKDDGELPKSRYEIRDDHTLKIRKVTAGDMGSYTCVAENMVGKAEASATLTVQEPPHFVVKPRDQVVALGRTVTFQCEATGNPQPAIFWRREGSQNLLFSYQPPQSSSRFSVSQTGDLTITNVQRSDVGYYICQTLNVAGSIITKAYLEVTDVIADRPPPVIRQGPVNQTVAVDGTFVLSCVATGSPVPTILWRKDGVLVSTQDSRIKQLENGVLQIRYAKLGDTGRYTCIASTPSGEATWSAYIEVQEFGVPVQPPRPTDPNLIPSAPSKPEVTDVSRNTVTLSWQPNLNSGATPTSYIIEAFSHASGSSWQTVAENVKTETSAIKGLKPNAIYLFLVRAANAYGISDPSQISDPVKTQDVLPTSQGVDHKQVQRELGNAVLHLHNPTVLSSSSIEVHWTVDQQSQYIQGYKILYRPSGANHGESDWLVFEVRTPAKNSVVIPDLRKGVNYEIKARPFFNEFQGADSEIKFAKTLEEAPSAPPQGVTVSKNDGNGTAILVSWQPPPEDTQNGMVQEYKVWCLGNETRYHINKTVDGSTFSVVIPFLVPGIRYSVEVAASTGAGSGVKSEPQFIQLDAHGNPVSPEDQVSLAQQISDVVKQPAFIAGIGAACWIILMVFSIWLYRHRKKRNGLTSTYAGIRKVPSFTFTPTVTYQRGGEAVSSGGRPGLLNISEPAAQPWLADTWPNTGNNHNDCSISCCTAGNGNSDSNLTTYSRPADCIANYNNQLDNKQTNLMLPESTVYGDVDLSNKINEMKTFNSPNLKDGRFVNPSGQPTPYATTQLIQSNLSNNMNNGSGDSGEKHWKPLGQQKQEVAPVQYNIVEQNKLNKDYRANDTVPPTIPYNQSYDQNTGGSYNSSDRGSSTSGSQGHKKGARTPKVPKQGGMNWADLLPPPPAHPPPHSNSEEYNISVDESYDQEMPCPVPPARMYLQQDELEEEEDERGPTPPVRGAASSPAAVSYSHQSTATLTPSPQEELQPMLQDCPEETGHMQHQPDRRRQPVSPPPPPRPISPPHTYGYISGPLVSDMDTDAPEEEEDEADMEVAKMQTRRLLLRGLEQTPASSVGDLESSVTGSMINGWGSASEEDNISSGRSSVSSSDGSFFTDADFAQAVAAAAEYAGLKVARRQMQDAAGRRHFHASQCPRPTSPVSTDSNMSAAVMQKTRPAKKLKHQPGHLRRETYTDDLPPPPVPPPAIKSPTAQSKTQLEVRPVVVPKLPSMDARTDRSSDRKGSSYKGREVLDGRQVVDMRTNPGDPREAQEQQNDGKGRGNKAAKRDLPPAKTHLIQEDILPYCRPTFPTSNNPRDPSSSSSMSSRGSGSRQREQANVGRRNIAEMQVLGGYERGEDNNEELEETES

B1: B5209B (antibody, from another filing, mouse IgG2b)
scFv: MAEVQLVESGGGVVQPGGSLKLSCAASGFTFSTYDMSWVRQTPDKRLELVATINSNGGSTYYPDSVKGRFTSSRDNAKNILYLQMSSLKSEDTAMYYCAREALLRPPYYALDYWGQGTSVTVSSAGGGGSGGGGSGGGGSGGGGSDILDIQMTQSPASLSASVGETVTITCGASENIYGALTWYQRKQGKSPQLLIYGAINLADDKSSRFSGSGSGRQYSLKISSLHPDDVATYYCQNVLSTPFTFGSGTKLEIKAAGHHHHHH
In experiment [1], B1 displayed an EC50 of 3.1 nM. This molecule also returned a CDC (%), measured value at 0.1 ug/mL in experiment [2] of 87.2%.
